Experimental data taken from PMC9463131, “SLITRK1-mediated noradrenergic projection suppression in the neonatal prefrontal cortex” (Communications Biology, 2022).

Assays:
Assay in all cases: BLI
[1] = biological target: T1, human Neurofascin ECD-His6 (8208-NF-050, R&D Systems) (human)
T1 chain: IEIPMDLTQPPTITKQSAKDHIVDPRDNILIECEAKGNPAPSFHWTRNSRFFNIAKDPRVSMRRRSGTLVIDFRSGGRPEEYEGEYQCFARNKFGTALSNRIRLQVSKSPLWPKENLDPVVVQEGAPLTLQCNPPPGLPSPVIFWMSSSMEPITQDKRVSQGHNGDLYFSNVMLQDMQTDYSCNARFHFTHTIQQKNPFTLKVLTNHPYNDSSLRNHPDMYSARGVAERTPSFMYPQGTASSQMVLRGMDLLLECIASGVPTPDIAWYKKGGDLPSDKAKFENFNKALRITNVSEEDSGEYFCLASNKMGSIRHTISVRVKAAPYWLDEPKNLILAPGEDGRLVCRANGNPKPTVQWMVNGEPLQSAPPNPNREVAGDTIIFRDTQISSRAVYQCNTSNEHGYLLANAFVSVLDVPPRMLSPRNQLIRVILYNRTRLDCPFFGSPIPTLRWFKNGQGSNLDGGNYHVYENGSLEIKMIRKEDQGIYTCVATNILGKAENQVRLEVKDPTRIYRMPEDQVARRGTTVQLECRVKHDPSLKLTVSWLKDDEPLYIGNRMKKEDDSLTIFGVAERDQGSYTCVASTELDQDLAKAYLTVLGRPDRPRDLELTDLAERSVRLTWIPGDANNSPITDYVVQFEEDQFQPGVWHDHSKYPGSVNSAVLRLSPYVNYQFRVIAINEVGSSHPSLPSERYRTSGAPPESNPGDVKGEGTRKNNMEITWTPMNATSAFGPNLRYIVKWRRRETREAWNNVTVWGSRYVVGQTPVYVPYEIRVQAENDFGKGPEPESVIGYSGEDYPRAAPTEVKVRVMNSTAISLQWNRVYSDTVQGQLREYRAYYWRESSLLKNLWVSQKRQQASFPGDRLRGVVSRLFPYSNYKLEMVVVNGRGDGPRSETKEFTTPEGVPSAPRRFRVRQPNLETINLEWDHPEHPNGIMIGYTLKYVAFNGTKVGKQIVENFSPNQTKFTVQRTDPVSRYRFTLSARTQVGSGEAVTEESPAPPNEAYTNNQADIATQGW

[2] = biological target: T2, L1CAM ECD-His6 (777-NC-100, R&D Systems) (UniProt P32004 20-1120)
T2 chain: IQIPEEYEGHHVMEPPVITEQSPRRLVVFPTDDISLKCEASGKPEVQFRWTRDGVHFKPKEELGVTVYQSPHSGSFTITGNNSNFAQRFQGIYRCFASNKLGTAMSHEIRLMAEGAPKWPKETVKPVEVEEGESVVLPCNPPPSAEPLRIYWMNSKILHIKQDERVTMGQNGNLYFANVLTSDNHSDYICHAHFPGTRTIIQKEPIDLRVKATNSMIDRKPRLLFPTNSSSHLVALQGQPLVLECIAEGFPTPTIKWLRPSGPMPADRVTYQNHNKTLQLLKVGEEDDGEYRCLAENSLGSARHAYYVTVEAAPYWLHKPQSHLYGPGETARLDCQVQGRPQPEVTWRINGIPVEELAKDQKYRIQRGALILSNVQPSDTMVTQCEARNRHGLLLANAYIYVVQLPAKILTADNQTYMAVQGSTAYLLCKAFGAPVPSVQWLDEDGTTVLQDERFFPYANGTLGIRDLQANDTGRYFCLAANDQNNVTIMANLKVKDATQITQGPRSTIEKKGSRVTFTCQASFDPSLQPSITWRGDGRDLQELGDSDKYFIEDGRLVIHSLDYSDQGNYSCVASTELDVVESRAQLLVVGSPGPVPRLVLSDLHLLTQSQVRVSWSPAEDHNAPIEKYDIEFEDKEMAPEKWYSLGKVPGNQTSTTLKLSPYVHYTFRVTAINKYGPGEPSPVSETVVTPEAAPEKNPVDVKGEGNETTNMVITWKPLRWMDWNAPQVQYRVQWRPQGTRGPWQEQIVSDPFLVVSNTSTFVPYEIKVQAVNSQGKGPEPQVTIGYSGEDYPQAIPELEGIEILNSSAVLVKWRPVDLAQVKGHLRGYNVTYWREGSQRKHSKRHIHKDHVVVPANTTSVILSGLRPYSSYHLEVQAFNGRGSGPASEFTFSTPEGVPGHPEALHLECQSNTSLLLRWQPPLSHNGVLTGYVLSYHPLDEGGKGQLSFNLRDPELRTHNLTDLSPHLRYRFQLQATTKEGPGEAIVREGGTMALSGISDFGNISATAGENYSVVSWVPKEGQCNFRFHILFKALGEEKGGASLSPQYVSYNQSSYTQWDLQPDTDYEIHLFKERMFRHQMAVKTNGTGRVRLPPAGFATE

[3] = biological target: T3, human PTPRD ECD-His6 (ACROBiosystems) (human, UniProt P23468 21-1265)
T3 chain: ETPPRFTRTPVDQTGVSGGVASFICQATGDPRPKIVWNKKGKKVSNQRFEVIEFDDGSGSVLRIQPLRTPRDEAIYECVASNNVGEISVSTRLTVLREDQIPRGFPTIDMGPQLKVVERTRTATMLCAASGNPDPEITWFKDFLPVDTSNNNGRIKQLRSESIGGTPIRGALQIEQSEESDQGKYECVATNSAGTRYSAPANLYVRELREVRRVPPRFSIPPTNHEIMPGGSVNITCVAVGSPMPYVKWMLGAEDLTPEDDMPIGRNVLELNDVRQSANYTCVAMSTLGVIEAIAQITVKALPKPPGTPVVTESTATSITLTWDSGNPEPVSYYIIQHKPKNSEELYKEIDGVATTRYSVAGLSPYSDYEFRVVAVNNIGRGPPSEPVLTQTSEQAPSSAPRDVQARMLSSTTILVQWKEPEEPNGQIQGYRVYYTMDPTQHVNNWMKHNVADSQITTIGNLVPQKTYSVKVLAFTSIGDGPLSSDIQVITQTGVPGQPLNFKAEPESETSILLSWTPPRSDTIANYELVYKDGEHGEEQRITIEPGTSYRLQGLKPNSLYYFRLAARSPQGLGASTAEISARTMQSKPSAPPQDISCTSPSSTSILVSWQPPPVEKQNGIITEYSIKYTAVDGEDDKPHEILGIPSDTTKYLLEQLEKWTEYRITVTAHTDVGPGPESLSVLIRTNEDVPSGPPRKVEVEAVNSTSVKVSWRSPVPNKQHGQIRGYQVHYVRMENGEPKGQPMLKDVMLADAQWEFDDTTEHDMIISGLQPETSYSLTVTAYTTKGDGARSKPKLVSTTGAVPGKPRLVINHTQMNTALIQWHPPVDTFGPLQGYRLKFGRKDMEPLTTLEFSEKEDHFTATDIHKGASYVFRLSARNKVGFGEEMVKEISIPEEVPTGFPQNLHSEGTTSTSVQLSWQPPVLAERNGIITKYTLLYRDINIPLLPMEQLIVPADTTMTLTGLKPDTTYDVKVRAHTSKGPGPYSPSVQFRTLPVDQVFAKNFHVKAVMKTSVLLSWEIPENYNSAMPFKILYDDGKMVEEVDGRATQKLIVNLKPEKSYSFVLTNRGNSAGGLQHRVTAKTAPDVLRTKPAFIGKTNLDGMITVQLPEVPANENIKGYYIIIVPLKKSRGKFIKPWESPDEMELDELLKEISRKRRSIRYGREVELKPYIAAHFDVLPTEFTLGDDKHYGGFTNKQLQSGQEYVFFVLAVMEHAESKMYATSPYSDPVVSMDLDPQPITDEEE

koff [1]: 0.00256 s⁻¹
koff [2]: 0.00088 s⁻¹
koff [3]: 0.00351 s⁻¹
B1: SLITRK1 ECD-immunoglobulin Fc domain-fusion protein (SLITRK1-WT-Fc) (Fc fusion)
chain: NVTGDVCKEKICSCNEIEGDLHVDCEKKGFTSLQRFTAPTSQFYHLFLHGNSLTRLFPNEFANFYNAVSLHMENNGLHEIVPGAFLGLQLVKRLHINNNKIKSFRKQTFLGLDDLEYLQADFNLLRDIDPGAFQDLNKLEVLILNDNLISTLPANVFQYVPITHLDLRGNRLKTLPYEEVLEQIPGIAEILLEDNPWDCTCDLLSLKEWLENIPKNALIGRVVCEAPTRLQGKDLNETTEQDLCPLKNRVDSSLPAPPAQEETFAPGPLPTPFKTNGQEDHATPGSAPNGGTKIPGNWQIKIRPTAAIATGSSRNKPLANSLPCPGGCSCDHIPGSGLKMNCNNRNVSSLADLKPKLSNVQELFLRDNKIHSIRKSHFVDYKNLILLDLGNNNIATVENNTFKNLLDLRWLYMDSNYLDTLSREKFAGLQNLEYLNVEYNAIQLILPGTFNAMPKLRILILNNNLLRSLPVDVFAGVSLSKLSLHNNYFMYLPVAGVLDQLTSIIQIDLHGNPWECSCTIVPFKQWAERLGSEVLMSDLKCETPVNFFRKDFMLLSNDEICPQLYARISPTLTSHSKNSTGLAETGTHSNSYLDTSRVS
